Experimental data taken from paper PMC12518842.

Biological target: NISTmAb Primary Sample (PS 8670)
Assay: FPLC; mAb sample after buffer exchange; sample buffer 15 mM acetic acid, 40 mM NaCl, pH 5 (ionic strength 50 mM); column and running conditions not told

NISTmAb Primary Sample (PS 8670) (antibody)
percent dimers: < 1%
